Measurements published in paper PMC10191176 (Nature immunology, 2022).
Substitutions are numbered along the chain they refer to. In names and notes the source's numbering stands.

Tests used:
[1] = molecular target: HLA-DR4 (DRA*0101/DRB1*0401) with the linked p24 HIV Gag peptide 164-183 (HLA-DR4^HIV) (human | HIV); experiment: SPR
[2] = molecular target: HLA-DR4 loaded with CLIP peptide (UniProt P04233); experiment: SPR
SEC-MALS = molecular target: the molecule itself; experiment: SEC-MALS
[3] = molecular target: T1, yeast-displayed FGL1^FD E250A/E251A/D252A (human, UniProt Q08830 58-312, E250A | E251A | D252A); experiment: flow cytometry on cells
T1 sequence (looked up): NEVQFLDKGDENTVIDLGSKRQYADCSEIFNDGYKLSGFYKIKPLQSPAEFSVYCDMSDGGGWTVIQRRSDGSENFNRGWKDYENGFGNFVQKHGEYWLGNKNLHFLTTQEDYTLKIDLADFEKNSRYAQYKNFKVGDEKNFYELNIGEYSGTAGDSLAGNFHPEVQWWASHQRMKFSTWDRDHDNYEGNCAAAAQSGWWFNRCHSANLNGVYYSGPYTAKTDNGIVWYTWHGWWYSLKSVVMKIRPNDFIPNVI

[4] = molecular target: T2, yeast-displayed FGL1^FD Y244A/E245A (human, UniProt Q08830 58-312, Y244A | E245A); experiment: flow cytometry on cells
T2 sequence (looked up): T1 sequence (looked up) with Y187A, E188A, A193E, A194E, A195D

HLA-DR4 loaded with CLIP peptide, sequence (P04233 whole entry, looked up, tested part not stated): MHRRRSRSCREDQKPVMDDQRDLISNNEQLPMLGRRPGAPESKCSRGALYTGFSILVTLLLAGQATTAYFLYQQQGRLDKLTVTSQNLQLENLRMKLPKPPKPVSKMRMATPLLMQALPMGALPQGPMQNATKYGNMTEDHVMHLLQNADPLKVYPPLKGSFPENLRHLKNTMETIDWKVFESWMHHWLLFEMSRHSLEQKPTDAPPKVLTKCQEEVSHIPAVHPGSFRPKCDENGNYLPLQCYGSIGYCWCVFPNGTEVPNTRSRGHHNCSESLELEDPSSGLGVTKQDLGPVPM

## hLAG3* (human LAG3 extracellular domain with the M171I mutation) (from UniProt P18627 23-450) (domain or fragment)
[1]
  Kd: 5.2 µM
[2]
  Kd: 2.45 µM

B1: murine LAG3 extracellular domain (mLAG3, residues 23-442) (domain or fragment, mouse, UniProt Q61790 23-442, looked up)
chain: SGPGKELPVVWAQEGAPVHLPCSLKSPNLDPNFLRRGGVIWQHQPDSGQPTPIPALDLHQGMPSPRQPAPGRYTVLSVAPGGLRSGRQPLHPHVQLEERGLQRGDFSLWLRPALRTDAGEYHATVRLPNRALSCSLRLRVGQASMIASPSGVLKLSDWVLLNCSFSRPDRPVSVHWFQGQNRVPVYNSPRHFLAETFLLLPQVSPLDSGTWGCVLTYRDGFNVSITYNLKVLGLEPVAPLTVYAAEGSRVELPCHLPPGVGTPSLLIAKWTPPGGGPELPVAGKSGNFTLHLEAVGLAQAGTYTCSIHLQGQQLNATVTLAVITVTPKSFGLPGSRGKLLCEVTPASGKERFVWRPLNNLSRSCPGPVLEIQEARLLAERWQCQLYEGQRLLGATVYAAESSSGAHSARRISGDLKGGHL
SEC-MALS
  stoichiometry N: 2

B2: hLAG3* (human LAG3 extracellular domain with the M171I mutation) (domain or fragment, UniProt P18627 23-450, looked up)
chain: LQPGAEVPVVWAQEGAPAQLPCSPTIPLQDLSLLRRAGVTWQHQPDSGPPAAAPGHPLAPGPHPAAPSSWGPRPRRYTVLSVGPGGLRSGRLPLQPRVQLDERGRQRGDFSLWLRPARRADAGEYRAAVHLRDRALSCRLRLRLGQASITASPPGSLRASDWVILNCSFSRPDRPASVHWFRNRGQGRVPVRESPHHHLAESFLFLPQVSPMDSGPWGCILTYRDGFNVSIMYNLTVLGLEPPTPLTVYAGAGSRVGLPCRLPAGVGTRSFLTAKWTPPGGGPDLLVTGDNGDFTLRLEDVSQAQAGTYTCHIHLQEQQLNATVTLAIITVTPKSFGSPGSLGKLLCEVTPVSGQERFVWSSLDTPSQRSFSGPWLEAQEAQLLSQPWQCQLYQGERLLGAAVYFTELSSPGAQRSGRAPGALPAGHL
modifications: biotin on the BAP tag (BirA ligase) in binding experiments
[3]
  reduction of binding relative to wild-type FGL1^FD: 80%
[4]
  reduction of binding relative to wild-type FGL1^FD: 75%
